Assay results: patent US20230303660A1 (published 2023)
Several values for one entry are separate records, joined by “and”; a condition that tells them apart may be missing. Equal entries are not always repeated.

B1: s4-1BBL (ligand)
chain: GSGSNWSHPQFEKGGSGGHHHHHHGGSGGGSLDLRQGMFAQLVAQNVLLIDGPLSWYSDPGLAGVSLTGGLSYKEDTKELVVAKAGVYYVFFQLELRRVVAGEGSGSVSLALHLQPLRSAAGAAALALTVDLPPASSEARNSAFGFQGRLLHLSAGQRLGVHLHTEARARHAWQLTQGATVLGLFRVTPEIPAGLPSPRSE
notes: HEK293T supernatant; also called soluble 4-1BBL
B2: s4-1BBL-TriXVIII (ligand)
chain: GSGSNWSHPQFEKGGSGGHHHHHHGGSGGGVRLWATRQAMLGQVHEVPEGWLIFVAEQEELYVRVQNGFRKVQLEARTPLPRGTDNEGSLDLRQGMFAQLVAQNVLLIDGPLSWYSDPGLAGVSLTGGLSYKEDTKELVVAKAGVYYVFFQLELRRVVAGEGSGSVSLALHLQPLRSAAGAAALALTVDLPPASSEARNSAFGFQGRLLHLSAGQRLGVHLHTEARARHAWQLTQGATVLGLFRVTPEIPAGLPSPRSE
notes: HEK293T supernatant; The entry may include the CD5 leader; also called 54-1BBL-TriXVIII; human s4-1BBL-TriXVIII
B3: s4-1BBLsh-TriXVIII (ligand)
chain: GSGSNWSHPQFEKGGSGGHHHHHHGGSGGGVRLWATRQAMLGQVHEVPEGWLIFVAEQEELYVRVQNGFRKVQLEARTPLPRGTDNEGSGMFAQLVAQNVLLIDGPLSWYSDPGLAGVSLTGGLSYKEDTKELVVAKAGVYYVFFQLELRRVVAGEGSGSVSLALHLQPLRSAAGAAALALTVDLPPASSEARNSAFGFQGRLLHLSAGQRLGVHLHTEARARHAWQLTQGATVLGLFRVTP
notes: HEK293T supernatant, used without purification; The entry may include the CD5 leader; also called 54-1BBLsh-TriXVIII; s4-1BBL-short (sh) minimal polypeptide
B4: Triple-s4-1BBL (ligand)
chain: GSGSNWSHPQFEKGGSGGHHHHHHGGSGGGSLDLRQGMFAQLVAQNVLLIDGPLSWYSDPGLAGVSLTGGLSYKEDTKELVVAKAGVYYVFFQLELRRVVAGEGSGSVSLALHLQPLRSAAGAAALALTVDLPPASSEARNSAFGFQGRLLHLSAGQRLGVHLHTEARARHAWQLTQGATVLGLFRVTPEIPAGLPSPRSEGGGGSGGGGSGGGGSLDLRQGMFAQLVAQNVLLIDGPLSWYSDPGLAGVSLTGGLSYKEDTKELVVAKAGVYYVFFQLELRRVVAGEGSGSVSLALHLQPLRSAAGAAALALTVDLPPASSEARNSAFGFQGRLLHLSAGQRLGVHLHTEARARHAWQLTQGATVLGLFRVTPEIPAGLPSPRSEGGGGSGGGGSGGGGSLDLRQGMFAQLVAQNVLLIDGPLSWYSDPGLAGVSLTGGLSYKEDTKELVVAKAGVYYVFFQLELRRVVAGEGSGSVSLALHLQPLRSAAGAAALALTVDLPPASSEARNSAFGFQGRLLHLSAGQRLGVHLHTEARARHAWQLTQGATVLGLFRVTPEIPAGLPSPRSE
notes: HEK293T supernatant; Single chain carrying three ectodomains; The entry may include the leader
B5: s4-1BBL-TNC (ligand)
chain: GSGSNWSHPQFEKGGSGGHHHHHHGGSGGTRACGCAAAPDIKDLLSRLEELEGLVSSLREQGSLDLRQGMFAQLVAQNVLLIDGPLSWYSDPGLAGVSLTGGLSYKEDTKELVVAKAGVYYVFFQLELRRVVAGEGSGSVSLALHLQPLRSAAGAAALALTVDLPPASSEARNSAFGFQGRLLHLSAGQRLGVHLHTEARARHAWQLTQGATVLGLFRVTPEIPAGLPSPRSE
notes: HEK293T supernatant; The entry may include the CD5 leader; also called comparison 3
B6: murine (m)s4-1BBL-TriXVIII (ligand)
chain: GVRLWATRQAMLGQVHEVPEGWLIFVAEQEELYVRVQNGFRKVQLEARTPLPRGTDNEGSRTEPRPALTITTSPNLGTRENNADQVTPVSHIGCPNTTQQGSPVFAKLLAKNQASLCNTTLNWHSQDGAGSSYLSQGLRYEEDKKELVVDSPGLYYVFLELKLSPTFTNTGHKVQGWVSLVLQAKPQVDDFDNLALTVELFPCSMENKLVDRSWSQLLLLKAGHRLSVGLRAYLHGAQDAYRDWELSYPNTTSFGLFLVKPDNPWE
B7: s4-1BBL-TriXVIII^LL (ligand)
chain: GSGSNWSHPQFEKGGSGGHHHHHHGGSGGTRSGAGGSGGSSGSDGASGSGVRLWATRQAMLGQVHEVPEGWLIFVAEQEELYVRVQNGFRKVQLEARTPLPRGTDNEGSLDLRQGMFAQLVAQNVLLIDGPLSWYSDPGLAGVSLTGGLSYKEDTKELVVAKAGVYYVFFQLELRRVVAGEGSGSVSLALHLQPLRSAAGAAALALTVDLPPASSEARNSAFGFQGRLLHLSAGQRLGVHLHTEARARHAWQLTQGATVLGLFRVTPEIPAGLPSPRSE

Target: T1, human 4-1BB (human, UniProt Q07011 24-255)
T1 construct: whole, on cells; also called CD137; 4-1BB reporter cells
T1 sequence (Q07011 24-255): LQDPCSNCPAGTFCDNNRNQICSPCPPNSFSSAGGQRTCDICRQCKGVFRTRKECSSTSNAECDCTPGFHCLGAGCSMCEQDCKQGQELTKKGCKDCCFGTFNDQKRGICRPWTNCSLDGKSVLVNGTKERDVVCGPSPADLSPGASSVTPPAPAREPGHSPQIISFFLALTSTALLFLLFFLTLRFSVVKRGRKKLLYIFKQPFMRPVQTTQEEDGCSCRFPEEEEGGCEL
Test: flow cytometry; dilution series of HEK293T supernatant on Jurkat TPR cells expressing human 4-1BB
Description: For testing the resulting supernatants, a Triple parameter reporter cell line (TPR) based on the human Jurkat JE6-1 T cell line was used (Jutz et al., 2016). This cell line harbors fluorescent reporter polypeptides to concomitantly assess the activity of three transcription factors, which play major roles during T cell activation: NF-κB::eCFP; NFAT::eGFP and AP-1::mCherry. The TPR reporter cells were transduced to stably express human 4-1BB. For the binding assays, 1×10⁵ 4-1 BB expressing cells in a volume of 10 μl were incubated with 50 μl of the supernatants containing the products according to Table 1. […] After an incubation time of 30 min at 4° C., the samples are washed in FACS-Buffer (1×PBS, 0.5% FCS, 0.005% NaN₃) and stained with a biotinylated Strep-tag II mAb (GenScript, NJ) via adding 5 μl of a 1:150 dilution to each sample and incubation for 20 min on 4° C. Afterwards, samples were washed again and incubated for another 20 min on 4° C. upon adding 5 μl of a 1:200 dilution of Streptavidin-PE (BD Pharmingen, San Diego, CA) to each sample. At last, samples were washed again and subsequently measured via flow cytometry, which was performed on a FACSCalibur flow cytometer (Becton Dickinson Immunocytometry System, San Jose, CA), using the CellQuest software. Data was analyzed with FlowJo (version 10.0.7, Tree Star, Ashland, OR) and Graphpad Prism (version 6, GraphPad Software, Inc., La Jolla, CA).

| Binder | supernatant dilution at which binding is still detectable |
| --- | --- |
| B1 | 1600 supernatant dilution (1:x) |
| B2 | 4096 supernatant dilution (1:x) |
| B3 | 2080 supernatant dilution (1:x) |
| B4 | 4096 supernatant dilution (1:x) |
| B5 | 128 supernatant dilution (1:x) |

Target: murine 4-1BB (murine, UniProt P20334 24-256)
Sequence (P20334 24-256): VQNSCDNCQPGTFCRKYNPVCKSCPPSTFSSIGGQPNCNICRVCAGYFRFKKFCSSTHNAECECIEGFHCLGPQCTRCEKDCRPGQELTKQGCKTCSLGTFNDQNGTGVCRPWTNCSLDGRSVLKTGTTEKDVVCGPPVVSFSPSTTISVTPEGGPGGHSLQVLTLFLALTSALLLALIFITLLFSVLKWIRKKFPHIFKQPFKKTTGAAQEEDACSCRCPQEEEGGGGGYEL
Test: cell-based or functional assay

| Binder | NF-κB activation measured through eCFP expression (fold induction) |
| --- | --- |
| B6 | 15600 final supernatant dilution (1:x) and 500 supernatant dilution (1/x) |

Target: T1, human 4-1BB
Test: cell-based or functional assay

| Binder | NF-κB activation measured through eCFP expression (fold induction) |
| --- | --- |
| B1 | 8 final supernatant dilution (1:x) |
| B7 | 64 final supernatant dilution (1:x) and 8 supernatant dilution (1:x) |
| B5 | ~50 % of effect lost at a dilution of 1:8 |
